{"source": "patent US7378087", "key": {"[1]": {"biological_target": "H-2D^b MHC class I molecule (mouse) (UniProt P01899)", "sequence (P01899 25-309 limits assumed)": "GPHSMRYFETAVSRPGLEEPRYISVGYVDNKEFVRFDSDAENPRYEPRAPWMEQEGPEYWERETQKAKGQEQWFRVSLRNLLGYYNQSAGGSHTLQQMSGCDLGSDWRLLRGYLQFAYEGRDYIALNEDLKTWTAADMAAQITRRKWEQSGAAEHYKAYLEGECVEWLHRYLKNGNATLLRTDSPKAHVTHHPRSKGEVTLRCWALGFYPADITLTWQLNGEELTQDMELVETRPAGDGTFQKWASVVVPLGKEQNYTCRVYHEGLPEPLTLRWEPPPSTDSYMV", "test": "FACS on CMT.64 cells"}, "[2]": {"biological_target": "H-2D^b MHC class I molecule (mouse) (UniProt P01899)", "test": "FACS on CMT.64 cells treated with IFN-γ"}, "[3]": {"biological_target": "H-2D^b MHC class I molecule (mouse) (UniProt P01899)", "test": "FACS on CMT.1-4 cells (rTAP1 transfectant)"}, "[4]": {"biological_target": "H-2D^b MHC class I molecule (mouse) (UniProt P01899)", "test": "FACS on CMT.2-1 cells (rTAP2 transfectant)"}, "[5]": {"biological_target": "H-2D^b MHC class I molecule (mouse) (UniProt P01899)", "test": "FACS on CMT.1-10 cells (rTAP1 transfectant)"}, "[6]": {"biological_target": "H-2D^b MHC class I molecule (mouse) (UniProt P01899)", "test": "FACS on CMT.2-10 cells (rTAP2 transfectant)"}, "[7]": {"biological_target": "H-2D^b MHC class I molecule (mouse) (UniProt P01899)", "test": "FACS on CMT.12-21 cells (rTAP1,2 transfectant)"}, "[8]": {"biological_target": "H-2D^b MHC class I molecule (mouse) (UniProt P01899)", "test": "single-colour FACS on RMA-S cells (linear, 5000 events)"}, "[9]": {"biological_target": "H-2D^b MHC class I molecule (mouse) (UniProt P01899)", "test": "single-colour FACS on RMA-S.ptml cells (TAP-1 antisense)"}, "[10]": {"biological_target": "H-2K^b MHC class I molecule (mouse) (UniProt P01901)", "sequence (P01901 22-305 limits assumed)": "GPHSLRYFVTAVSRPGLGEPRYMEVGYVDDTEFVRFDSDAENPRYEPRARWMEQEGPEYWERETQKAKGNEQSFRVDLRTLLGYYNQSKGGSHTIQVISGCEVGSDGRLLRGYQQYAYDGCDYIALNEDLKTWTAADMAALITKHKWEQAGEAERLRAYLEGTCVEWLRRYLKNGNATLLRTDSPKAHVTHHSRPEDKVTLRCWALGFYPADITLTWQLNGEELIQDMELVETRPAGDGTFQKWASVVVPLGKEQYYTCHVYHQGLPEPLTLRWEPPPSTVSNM", "test": "FACS on CMT.64 cells"}, "[11]": {"biological_target": "H-2K^b MHC class I molecule (mouse) (UniProt P01901)", "test": "FACS on CMT.neo cells (vector control)"}, "[12]": {"biological_target": "H-2K^b MHC class I molecule (mouse) (UniProt P01901)", "test": "FACS on CMT.64 cells treated with IFN-γ"}, "[13]": {"biological_target": "H-2K^b MHC class I molecule (mouse) (UniProt P01901)", "test": "FACS on CMT.1-1 cells (rTAP1 transfectant)"}, "[14]": {"biological_target": "H-2K^b MHC class I molecule (mouse) (UniProt P01901)", "test": "FACS on CMT.1-4 cells (rTAP1 transfectant)"}, "[15]": {"biological_target": "H-2K^b MHC class I molecule (mouse) (UniProt P01901)", "test": "FACS on CMT.2-1 cells (rTAP2 transfectant)"}, "[16]": {"biological_target": "H-2K^b MHC class I molecule (mouse) (UniProt P01901)", "test": "FACS on CMT.1-10 cells (rTAP1 transfectant)"}, "[17]": {"biological_target": "H-2K^b MHC class I molecule (mouse) (UniProt P01901)", "test": "FACS on CMT.2-10 cells (rTAP2 transfectant)"}, "[18]": {"biological_target": "H-2K^b MHC class I molecule (mouse) (UniProt P01901)", "test": "FACS on CMT.12-21 cells (rTAP1,2 transfectant)"}, "[19]": {"biological_target": "H-2K^b MHC class I molecule (mouse) (UniProt P01901)", "test": "single-colour FACS on RMA-S cells (linear, 5000 events)"}, "[20]": {"biological_target": "H-2K^b MHC class I molecule (mouse) (UniProt P01901)", "test": "single-colour FACS on RMA-S.ptml cells (TAP-1 antisense)"}, "[21]": {"biological_target": "human β2-microglobulin (human) (UniProt P61769)", "sequence (P61769 21-119 limits assumed)": "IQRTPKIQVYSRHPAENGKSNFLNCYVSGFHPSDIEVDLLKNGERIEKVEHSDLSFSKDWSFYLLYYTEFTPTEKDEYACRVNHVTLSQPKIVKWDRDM", "test": "FACS on RMA cells; IFN +, peptide +, hβ2m - (no hβ2m added: background)"}, "[22]": {"biological_target": "human β2-microglobulin (human) (UniProt P61769)", "test": "FACS on RMA cells; IFN +, peptide -, hβ2m - (no hβ2m added: background)"}, "[23]": {"biological_target": "human β2-microglobulin (human) (UniProt P61769)", "test": "FACS on RMA cells; IFN -, peptide -, hβ2m - (no hβ2m added: background)"}, "[24]": {"biological_target": "human β2-microglobulin (human) (UniProt P61769)", "test": "FACS on RMA-S cells; IFN +, peptide +, hβ2m - (no hβ2m added: background)"}, "[25]": {"biological_target": "human β2-microglobulin (human) (UniProt P61769)", "test": "FACS on RMA-S cells; IFN +, peptide -, hβ2m - (no hβ2m added: background)"}, "[26]": {"biological_target": "human β2-microglobulin (human) (UniProt P61769)", "test": "FACS on RMA-S cells; IFN -, peptide -, hβ2m - (no hβ2m added: background)"}, "[27]": {"biological_target": "human β2-microglobulin (human) (UniProt P61769)", "test": "FACS on RMA cells; IFN +, peptide +, hβ2m + (hβ2m bound on the cell surface)"}, "[28]": {"biological_target": "human β2-microglobulin (human) (UniProt P61769)", "test": "FACS on RMA cells; IFN +, peptide -, hβ2m + (hβ2m bound on the cell surface)"}, "[29]": {"biological_target": "human β2-microglobulin (human) (UniProt P61769)", "test": "FACS on RMA cells; IFN -, peptide +, hβ2m + (hβ2m bound on the cell surface)"}, "[30]": {"biological_target": "human β2-microglobulin (human) (UniProt P61769)", "test": "FACS on RMA-S cells; IFN +, peptide +, hβ2m + (hβ2m bound on the cell surface)"}, "[31]": {"biological_target": "human β2-microglobulin (human) (UniProt P61769)", "test": "FACS on RMA-S cells; IFN +, peptide -, hβ2m + (hβ2m bound on the cell surface)"}, "[32]": {"biological_target": "human β2-microglobulin (human) (UniProt P61769)", "test": "FACS on RMA-S cells; IFN -, peptide +, hβ2m + (hβ2m bound on the cell surface)"}}}
{"substance": "28-14-8s anti H-2 D^b (α3) monoclonal antibody", "values": [{"measurement": "immunofluorescence intensity (negative control subtracted)", "setting": "[1]", "value": 18}, {"measurement": "immunofluorescence intensity (negative control subtracted)", "setting": "[2]", "value": 1100}, {"measurement": "immunofluorescence intensity (negative control subtracted)", "setting": "[3]", "value": 164}, {"measurement": "immunofluorescence intensity (negative control subtracted)", "setting": "[4]", "value": 10}, {"measurement": "immunofluorescence intensity (negative control subtracted)", "setting": "[5]", "value": 68}, {"measurement": "immunofluorescence intensity (negative control subtracted)", "setting": "[6]", "value": 39}, {"measurement": "immunofluorescence intensity (negative control subtracted)", "setting": "[7]", "value": 103}, {"measurement": "MEAN FLUORESCENCE", "setting": "[8]", "value": 130}, {"measurement": "MEAN FLUORESCENCE", "setting": "[9]", "value": 96.7}]}
{"substance": "Y-3 anti-H-2K^b monoclonal antibody", "values": [{"measurement": "immunofluorescence intensity (negative control subtracted)", "setting": "[10]", "value": 0}, {"measurement": "immunofluorescence intensity (negative control subtracted)", "setting": "[11]", "value": 0.1}, {"measurement": "immunofluorescence intensity (negative control subtracted)", "setting": "[12]", "value": 590}, {"measurement": "immunofluorescence intensity (negative control subtracted)", "setting": "[13]", "value": 62}, {"measurement": "immunofluorescence intensity (negative control subtracted)", "setting": "[14]", "value": 64}, {"measurement": "immunofluorescence intensity (negative control subtracted)", "setting": "[15]", "value": 3}, {"measurement": "immunofluorescence intensity (negative control subtracted)", "setting": "[16]", "value": 36}, {"measurement": "immunofluorescence intensity (negative control subtracted)", "setting": "[17]", "value": 48}, {"measurement": "immunofluorescence intensity (negative control subtracted)", "setting": "[18]", "value": 22}, {"measurement": "MEAN FLUORESCENCE", "setting": "[19]", "value": 222}, {"measurement": "MEAN FLUORESCENCE", "setting": "[20]", "value": 149}]}
{"substance": "BBM.1 monoclonal antibody against human β2m", "values": [{"measurement": "fluorescence units (arbitrary fluorescence units)", "setting": "[21]", "value": 4}, {"measurement": "fluorescence units (arbitrary fluorescence units)", "setting": "[22]", "value": 6}, {"measurement": "fluorescence units (arbitrary fluorescence units)", "setting": "[23]", "value": 1}, {"measurement": "fluorescence units (arbitrary fluorescence units)", "setting": "[24]", "value": 14}, {"measurement": "fluorescence units (arbitrary fluorescence units)", "setting": "[25]", "value": 14}, {"measurement": "fluorescence units (arbitrary fluorescence units)", "setting": "[26]", "value": 1}, {"measurement": "fluorescence units (arbitrary fluorescence units)", "setting": "[27]", "value": 606}, {"measurement": "fluorescence units (arbitrary fluorescence units)", "setting": "[28]", "value": 406}, {"measurement": "fluorescence units (arbitrary fluorescence units)", "setting": "[29]", "value": 274}, {"measurement": "fluorescence units (arbitrary fluorescence units)", "setting": "[30]", "value": 262}, {"measurement": "fluorescence units (arbitrary fluorescence units)", "setting": "[31]", "value": 76}, {"measurement": "fluorescence units (arbitrary fluorescence units)", "setting": "[32]", "value": 86}]}
